Consider two molecules from patent US20180362628A1 (KYMAB, published 2018).

Assay [1] concerns the target T1, biotinylated rCSP (biotin/rCSP, Example 3) (Plasmodium falciparum strain 3D7, UniProt P02893 19-389, biotinylated (sites not given)).
T1 construct: also called biotin/Pf CSP
T1 chain: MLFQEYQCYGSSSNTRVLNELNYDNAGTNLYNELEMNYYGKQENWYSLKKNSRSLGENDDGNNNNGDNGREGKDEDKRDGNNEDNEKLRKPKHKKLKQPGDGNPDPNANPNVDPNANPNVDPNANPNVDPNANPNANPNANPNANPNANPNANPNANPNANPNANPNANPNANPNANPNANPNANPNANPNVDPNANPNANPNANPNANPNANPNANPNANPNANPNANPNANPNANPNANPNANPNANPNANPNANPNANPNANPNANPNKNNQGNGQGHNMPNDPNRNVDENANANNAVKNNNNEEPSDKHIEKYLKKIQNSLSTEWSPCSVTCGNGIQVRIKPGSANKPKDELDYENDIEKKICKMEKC
Put plainly: BLI (Octet), biotin-rCSP on streptavidin sensor, antibody in solution. In general terms: In BLI a coated tip is dipped into the sample, and binding shifts an interference pattern.

Assay [2] has as its target T1, biotinylated rCSP (biotin/rCSP, Example …). Described as above.
Assay [3] addresses T2, Recombinant CSP (Wellcome Trust Sanger Institute, FIG. 22), CSP ectodomain with BirA biotinylation tag, … (Plasmodium falciparum strain 3D7, UniProt Q7K740 19-376, biotinylated at the BirA substrate peptide).
T2 construct: extracellular domain; Expressed in HEK293, 45 kDa; order of the tags is that of the legend, not confirmed; also called biotinylated recombinant CSP
The assay can be described thus: SPR, IgG1 captured, CSP as analyte, 40 C; apparent affinity (avidity). Background: SPR reads the build-up and loss of mass on a sensor chip optically.

Assay [4] concerns the target T3, Peptide #1 (Biotin-SGSGKPKHKKLKQPGDGNPDPNANP) (N-terminal biotin).
T3 construct: also called Peptide #1 44286
T3 peptide: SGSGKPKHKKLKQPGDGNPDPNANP
The assay can be described thus: BLI, biotin-peptide on streptavidin sensor, IgG1 in solution, 25 C.

The target in assay [5] is T4, Peptide #15 (Biotin-SGSGDGNPDPNANANV).
T4 construct: alanine scan variant; also called Peptide #15 44299
T4 peptide: Biotin-SGSGDGNPDPNANANV
Described as above.

Assay [6] addresses T5, Peptide #17 (Biotin-SGSGDGNPDPNANPNA).
T5 construct: alanine scan variant; also called Peptide #17 44301
T5 peptide: Biotin-SGSGDGNPDPNANPNA
The assay is described as above.

For assay [7], the target named is T6, Peptide #9 (Biotin-SGSGDGNADPNANPNV).
T6 construct: alanine scan variant; also called Peptide #9 44293
T6 peptide: Biotin-SGSGDGNADPNANPNV
The description is as above.

Assay [8] has as its target T7, Peptide #8 (Biotin-SGSGDGAPDPNANPNV).
T7 construct: alanine scan variant; also called Peptide #8 44292
T7 peptide: Biotin-SGSGDGAPDPNANPNV
The description is as above.

In assay [9] the target is T8, Peptide #11 (Biotin-SGSGDGNPDANANPNV).
T8 construct: alanine scan variant; also called Peptide #11 44295
T8 peptide: Biotin-SGSGDGNPDANANPNV
The assay is described as above.

Assay [10] concerns the target T9, Peptide #12 (Biotin-SGSGDGNPDPAANPNV).
T9 construct: alanine scan variant; also called Peptide #12 44296
T9 peptide: Biotin-SGSGDGNPDPAANPNV
The description is as above.

Assay [11] concerns the target T10, Peptide #7 (Biotin-SGSGDANPDPNANPNV).
T10 construct: alanine scan variant; also called Peptide #7 44291
T10 peptide: Biotin-SGSGDANPDPNANPNV
The assay is described as above.

For assay [12], the target named is T11, Peptide #4 (Biotin-SGSGNPDPNANP).
T11 construct: also called Peptide #4 44285
T11 peptide: Biotin-SGSGNPDPNANP
The description is as above.

Assay [13] has as its target T12, Peptide #6 (Biotin-SGSGAGNPDPNANPNV).
T12 construct: alanine scan variant; also called Peptide #6 44290
T12 peptide: Biotin-SGSGAGNPDPNANPNV
The description is as above.

Assay [14] addresses T13, Peptide #5 (Biotin-SGSGDGNPDPNANPNV), original sequence of the alanine scan.
T13 construct: also called Peptide #5 44289
T13 peptide: Biotin-SGSGDGNPDPNANPNV
The assay is described as above.

In assay [15] the target is T14, Peptide #14 (Biotin-SGSGDGNPDPNAAPNV).
T14 construct: alanine scan variant; also called Peptide #14 44298
T14 peptide: Biotin-SGSGDGNPDPNAAPNV
The assay is described as above.

Assay [16] addresses T15, Peptide #16 (Biotin-SGSGDGNPDPNANPAV).
T15 construct: alanine scan variant; also called Peptide #16 44300
T15 peptide: Biotin-SGSGDGNPDPNANPAV
The description is as above.

In assay [17] the target is T16, Peptide #10 (Biotin-SGSGDGNPAPNANPNV).
T16 construct: alanine scan variant; also called Peptide #10 44294
T16 peptide: Biotin-SGSGDGNPAPNANPNV
Described as above.

In assay [18] the target is T17, Peptide #3 (Biotin-SGSGHKKLKQPGDGNPDPNANPN) (N-terminal biotin).
T17 construct: also called Peptide #3 44288
T17 peptide: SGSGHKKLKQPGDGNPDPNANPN
The description is as above.

The target in assay [19] is T18, Peptide #13 (Biotin-SGSGDGNPDPNKNPNV).
T18 construct: scan variant, alanine replaced by lysine; also called Peptide #13 44297
T18 peptide: Biotin-SGSGDGNPDPNKNPNV
The description is as above.

Assay [20] has as its target T3, Peptide #1 …. Described as above.
Assay [21] concerns the target T4, Peptide #15 (Biotin-SGSGDGNPDPNANANV). Described as above.
For assay [22], the target named is T5, Peptide #17 (Biotin-SGSGDGNPDPNANPNA). The assay is described as above.
Assay [23] has as its target T6, Peptide #9 (Biotin-SGSGDGNADPNANPNV). The assay is described as above.
For assay [24], the target named is T7, Peptide #8 (Biotin-SGSGDGAPDPNANPNV). Described as above.
In assay [25] the target is T8, Peptide #11 (Biotin-SGSGDGNPDANANPNV). Described as above.
Assay [26] concerns the target T9, Peptide #12 (Biotin-SGSGDGNPDPAANPNV). Described as above.
Assay [27] deals with T10, Peptide #7 (Biotin-SGSGDANPDPNANPNV). The assay is described as above.
Assay [28] addresses T11, Peptide #4 (Biotin-SGSGNPDPNANP). The description is as above.
Assay [29] deals with T12, Peptide #6 (Biotin-SGSGAGNPDPNANPNV). The assay is described as above.
For assay [30], the target named is T13, Peptide #5 (Biotin-SGSGDGNPDPNANPNV), …. The description is as above.
Assay [31] has as its target T14, Peptide #14 (Biotin-SGSGDGNPDPNAAPNV). The description is as above.
Assay [32] has as its target T15, Peptide #16 (Biotin-SGSGDGNPDPNANPAV). The assay is described as above.
For assay [33], the target named is T16, Peptide #10 (Biotin-SGSGDGNPAPNANPNV). The description is as above.
The target of assay [34] is T17, Peptide #3 …. The description is as above.

Like-named read-outs stand apart in the source and are kept apart here. No end group written: not given here. *: point of attachment. Biotin = O=C1N[C@H]2[C@H](CS[C@H]2CCCCC(=O)*)N1

B1: Antibody 667, human IgG1 (antibody, V domains shown)
VH: QVQLVQSGAEVKKPGASVKVSCRASGYTFTNYAMHWVRQAPGQRLEWMGWINAGNGYTKYSQKFQDRVTITRDTSATTAYMELSSLRSEDTAMYYCARDSFYDILSGPVYHYYGMDVWGQGTTVTVSS
VL: QSALTQPDSVSGSPGQSITISCTGTSNDVGIYNHVSWYQQHPGKAPKLMIYDVNKRPSGISNRFSGSKSGDTASLTISGLQAEDEADYYCCSYAGSSAWVFGGGTKLTVL
notes: human IgG1 with human lambda light chain constant region; also called AB-000667; Ab667
For the molecule B1, the Kd stood at 341 pM in assay [1], 340 pM in assay [2] and 310 pM in assay [3]. In addition, the koff (as a rule, a measure of how fast the partners let go of each other) in assay [1] was 5.67e-05 s⁻¹; in assay [3], 6.46e-05 s⁻¹. Further, the kon (commonly the rate constant with which the complex forms) in [1] came out at 166000 M⁻¹ s⁻¹; in assay [3], 215000 M⁻¹ s⁻¹. Further, the “Response (nm)” value in assay [4] is 0.645 nm; in assay [5] it was 0.213 nm; in assay [6], 1.09 nm; in [7] it was 0.696 nm; in assay [8], 0.692 nm; in assay [9] it was 0.0953 nm. The “Response (nm)” value in assay [10] is 0.0529 nm; in assay [11], 0.951 nm; in assay [12] it was 0.163 nm; in assay [13], 0.907 nm; in assay [14], 0.635 nm; in assay [15], -0.0141 nm. The results for the “Response (nm)” value in assay [16], in assay [17] and in assay [18] were 0.651 nm, 3.22 nm and 0.814 nm, respectively.

B2: Antibody 668, human IgG1 (antibody, V domains shown)
VH: QVQLVQSGAEVKKPGASVKVSCKASGFTFTDYAMHWVRQAPGQRLEWMGWINAGNGYTKYSQKFQDRLTITRDTFASTVYMELSSLRSEDTTVYYCARDGFCPSNTCSGYYGMDVWGQGTTVTVSS
VL: QSALTQPASVSGSPGQSITISCTGTSSDVGSYNYVSWYQQHPGKAPKLMIYDVNTRPSGVSIRFSASKSGNTASLTVSGLQAEDEAVYYCSSYAGSSTWVFGGGTKLTVL
notes: human IgG1 with human lambda light chain constant region; HEK293 product; also called AB-000668; Ab668
On to B2, for which the figures for the Kd in assay [1], in [2] and in assay [3] were 570 pM, 570 pM and 50 pM, respectively. Further, the koff in assay [1] amounted to 7.1e-05 s⁻¹; in [3], 2.47e-05 s⁻¹. In addition, the figures for the on-rate (kon) in assay [1] and in assay [3] were 125000 M⁻¹ s⁻¹ and 540000 M⁻¹ s⁻¹, respectively. Also, the binding result in assay [19] is listed as “no binding (tested: LOD 0.170 nm)”. For the same molecule, the “Response (nm)” value turned out to be 6.47 nm in assay [20]; 5.69 nm in assay [21]; 4.86 nm in assay [22]; 4.72 nm in assay [23]; 4.86 nm in assay [24]; 6.01 nm in [25]. Also, the “Response (nm)” value in assay [26] stood at 4.74 nm; in assay [27] it was 4.88 nm; in [28], 4.69 nm; in [29], 4.9 nm; in assay [30] it was 4.71 nm; in assay [31], 0.597 nm. Further, the figures for the “Response (nm)” value in assay [32], in assay [33] and in assay [34] were 4.72 nm, 5.82 nm and 6.34 nm, respectively.
